Results published in article PMC5703498, “Plant-type phytoene desaturase: Functional evaluation of structural implications” (PLoS ONE, 2017).

Assays:
Format in all cases: biochemical, Oryza sativa
[1] = substrate: CC(C)=CCC/C(C)=C/CC\C(C)=C/C=C/C(C)=C/C=C\C=C(/C)CC/C=C(\C)CC/C=C(\C)CCC=C(C)C; test: Michaelis-Menten kinetics of purified enzyme in liposome assay (KM), HPLC; settings: FAD competes with phytoene at the active site
[2] = substrate: CC(C)=CCC/C(C)=C/CC/C(C)=C/CC/C(C)=C/C=C\C=C(/C)CC/C=C(\C)CC/C=C(\C)CCC=C(C)C; test: as above; settings: FAD hydrophobic substrate cavity, C11-C12 near the flavin
[3] = substrate: CCCCCCCCCCC1=CC(=O)C(C)=C(C)C1=O; test: Michaelis-Menten kinetics of purified enzyme in liposome assay (KM); settings: FAD electron acceptor; same substrate cavity as the carotene, successively occupied, near the FAD
[4] = substrate: CC(C)=CCC/C(C)=C/CC/C(C)=C/CC/C(C)=C/C=C\C=C(/C)CC/C=C(\C)CC/C=C(\C)CCC=C(C)C; test: Michaelis-Menten kinetics of purified mutant in liposome assay (KM); settings: FAD hydrophobic substrate cavity
[5] = substrate: CCCCCCCCCCC1=CC(=O)C(C)=C(C)C1=O; test: as above; settings: FAD electron acceptor; same substrate cavity as the carotene

| Protein | Km [1] | Km [2] | Km [3] | Km [4] | Km [5] |
| --- | --- | --- | --- | --- | --- |
| Phytoene desaturase (OsPDS-His6) (Oryza sativa Indica Group) (protein) AGQLSSFFRNSEQPTKPLQVVIAGAGLAGLSTAKYLADAGHKPILLEARDVLGGKIAAWKDEDGDWYETGLHIFFGAYPNIQNLFGELGINDRLQWKEHSMIFAMPNKPGEFSRFDFPETLPAPLNGIWAILRNNEMLTWPEKVKFALGLLPAMVGGQAYVEAQDGFTVSEWMKKQGVPDRVNDEVFIAMSKALNFINPDELSMQCILIALNRFLQEKHGSKMAFLDGNPPERLCMPIVDHVRSLGGEVRLNSRIQKIELNPDGTVKHFALTDGTQITGDAYVFATPVDILKLLVPQEWKEISYFKKLEKLVGVPVINVHIWFDRKLKNTYDHLLFSRSSLLSVYADMSVTCKEYYDPNRSMLELVFAPAEEWVGRSDTEIIEATMQELAKLFPDEIAADQSKAKILKYHVVKTPRSVYKTIPDCEPCRPLQRSPIEGFYLAGDYTKQKYLASMEGAVLSGKLCAQSVVEDYKMLSRRSLKSLQSEVPVAS | 66.8 ± 20.7 mM | 53.9 ± 18.1 mM | 1.3 ± 0.2 mM |  |  |
| Phytoene desaturase (OsPDS-His6) (Oryza sativa Indica Group; R300S) (protein) AGQLSSFFRNSEQPTKPLQVVIAGAGLAGLSTAKYLADAGHKPILLEARDVLGGKIAAWKDEDGDWYETGLHIFFGAYPNIQNLFGELGINDRLQWKEHSMIFAMPNKPGEFSRFDFPETLPAPLNGIWAILRNNEMLTWPEKVKFALGLLPAMVGGQAYVEAQDGFTVSEWMKKQGVPDRVNDEVFIAMSKALNFINPDELSMQCILIALNSFLQEKHGSKMAFLDGNPPERLCMPIVDHVRSLGGEVRLNSRIQKIELNPDGTVKHFALTDGTQITGDAYVFATPVDILKLLVPQEWKEISYFKKLEKLVGVPVINVHIWFDRKLKNTYDHLLFSRSSLLSVYADMSVTCKEYYDPNRSMLELVFAPAEEWVGRSDTEIIEATMQELAKLFPDEIAADQSKAKILKYHVVKTPRSVYKTIPDCEPCRPLQRSPIEGFYLAGDYTKQKYLASMEGAVLSGKLCAQSVVEDYKMLSRRSLKSLQSEVPVAS |  |  |  | 4.5 ± 2.6 mM | 0.4 ± 0.1 mM |
